Reference: PMC5869396 (Toxins, 2018)

B1: Nb113 (expressed from pMECS, C-terminal HA and His6 tags) (VHH)
VHH: QVQLQESGGGLVQPGGSLRLSCAASGFTFSSYYMSWVRQAPGKGPEWVSGINTGGVGTRYADSVKGRFTISRDNAKNTLYLQMNSLKPEDTALYYCAIGEGGNRNYWGQGTQVTVSS
notes: source: E. coli WK6 (pMECS), periplasmic extract, purified (IMAC, SEC)
B2: monovalent Nb113 (expressed from pHEN6c, His6 tag, without the HA tag) (VHH)
VHH: B1 VHH
notes: also called Nb113 monovalent; monomeric Nb113; source: E. coli WK6 (pHEN6c), purified (IMAC, SEC)

Tests used:
[1] = target: T1, recombinant Shiga toxin-2a B subunit (rStx2aB), C-terminal 6xHis tag (Escherichia coli O157:H7 EDL933 …); assay: crystal structure; details: both partners purified
T1 construct: source: E. coli BL21 (pET22b), periplasmic extract, purified (IMAC, SEC); not shown: His6, C-terminal, kept

[2] = target: T2, Stx2a holotoxin (Stx2a A subunit with the Stx2a B pentamer) (Escherichia coli, Stx2a strain not …, UniProt P09385;P09386); assay: pull-down; details: one partner purified
T2 construct: copies: 1 + 5

Row | Binder | stoichiometry N [1] | binding result [2]
1 | B1 | 5 per pentamer | 
2 | B2 |  | binds
